The target of test [1] is LGR4 (human (endogenous in HAP1)) (UniProt Q9BXB1).

B1: HA-RSPO3 R67A/Q72A-Tev-Fc-Avi-1D4 (Fc fusion)
chain: QNASRGRRQRRMHPNVSQGCQGGCATCSDYNGCLSCKPRLFFALEAIGMKAIGVCLSSCPSGYYGTRYPDINKCTKCKADCDTCFNKNFCTKCKSGFYLHLGKCLDNCPEGLEANNHTMECVSIVHCEVSEWNPWSPCTKKGKTCGFKRGTETRVREIIQHPSAKGNLCPPTNETRKCTVQRKKCQKGERGKKGRERKRKKPNKGESKEAIPDSKSLESSKEIPEQRENKQQQKKRKVQDKQKSVSVSTVH
Take B1: the EC50 of potentiation of WNT reporter fluorescence in WT HAP1-7TGP cells with 1.43% WNT3A CM, fold over wild-type RSPO3 in the test with ZNRF3/RNF43 was 21 fold.

B2: HA-RSPO3 F106E/F110E-Tev-Fc-Avi-1D4 (Fc fusion)
chain: QNASRGRRQRRMHPNVSQGCQGGCATCSDYNGCLSCKPRLFFALERIGMKQIGVCLSSCPSGYYGTRYPDINKCTKCKADCDTCENKNECTKCKSGFYLHLGKCLDNCPEGLEANNHTMECVSIVHCEVSEWNPWSPCTKKGKTCGFKRGTETRVREIIQHPSAKGNLCPPTNETRKCTVQRKKCQKGERGKKGRERKRKKPNKGESKEAIPDSKSLESSKEIPEQRENKQQQKKRKVQDKQKSVSVSTVH
As to B2, in test [1], the EC50 of potentiation of WNT reporter fluorescence in WT HAP1-7TGP cells with 1.43% WNT3A CM, fold over wild-type RSPO3 was 2.9 fold and the efficacy (maximum WNT reporter activity) in WT HAP1-7TGP cells with 1.43% WNT3A CM, reduction against wild-type RSPO3 was 48 % reduction.

The values are drawn from PMC5800842.
